According to patent US20160136234A1:

Experiments:
Experiment in all cases: cell-based or functional assay
[1] = target: Plk3 (h) (human) (UniProt Q9H4B4)
[2] = target: EGFR(L861Q) (h) (human) (UniProt P00533)
[3] = target: CHK2(R145W) (h) (human) (UniProt O96017)
[4] = target: CaMKIIγ (h) (human) (UniProt Q13555)
[5] = target: T1, Fms(Y969C) (h) (human) (UniProt P07333)
T1 sequence (looked up): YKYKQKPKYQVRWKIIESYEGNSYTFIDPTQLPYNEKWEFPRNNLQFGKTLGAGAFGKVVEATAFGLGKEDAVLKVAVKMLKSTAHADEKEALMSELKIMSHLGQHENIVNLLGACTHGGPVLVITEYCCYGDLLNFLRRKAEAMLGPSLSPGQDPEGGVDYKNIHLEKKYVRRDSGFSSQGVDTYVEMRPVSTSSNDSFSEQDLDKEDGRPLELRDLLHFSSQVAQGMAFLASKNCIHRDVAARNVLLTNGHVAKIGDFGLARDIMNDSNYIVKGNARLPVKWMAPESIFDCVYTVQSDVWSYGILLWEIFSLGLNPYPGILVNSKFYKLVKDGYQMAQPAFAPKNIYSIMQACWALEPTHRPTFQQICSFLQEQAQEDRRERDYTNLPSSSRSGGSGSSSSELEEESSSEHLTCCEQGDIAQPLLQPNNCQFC

[6] = target: Rsk2 (h) (human) (UniProt P51812)
[7] = target: EGFR (h) (human) (UniProt P00533)
[8] = target: Abl (M351T) (h) (human) (UniProt P00519)
[9] = target: PKCτ (h) (human)
[10] = target: T2, Ret (h) (human) (UniProt P07949)
T2 sequence (looked up): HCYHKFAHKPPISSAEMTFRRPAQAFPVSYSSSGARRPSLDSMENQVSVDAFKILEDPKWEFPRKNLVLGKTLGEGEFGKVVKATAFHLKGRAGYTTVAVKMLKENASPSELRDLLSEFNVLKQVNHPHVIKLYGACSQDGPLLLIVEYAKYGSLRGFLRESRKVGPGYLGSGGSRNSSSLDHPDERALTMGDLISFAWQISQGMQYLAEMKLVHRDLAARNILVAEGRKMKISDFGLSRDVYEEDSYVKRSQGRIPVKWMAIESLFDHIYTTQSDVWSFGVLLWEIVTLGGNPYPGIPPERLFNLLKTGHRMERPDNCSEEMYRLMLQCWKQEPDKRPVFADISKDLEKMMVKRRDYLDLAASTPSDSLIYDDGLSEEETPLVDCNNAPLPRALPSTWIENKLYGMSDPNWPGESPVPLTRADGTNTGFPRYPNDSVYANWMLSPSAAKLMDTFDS

[11] = target: PKCδ (h) (human) (UniProt Q05655)
[12] = target: T3, PKCζ (h) (human) (UniProt Q05513)
T3 sequence (looked up): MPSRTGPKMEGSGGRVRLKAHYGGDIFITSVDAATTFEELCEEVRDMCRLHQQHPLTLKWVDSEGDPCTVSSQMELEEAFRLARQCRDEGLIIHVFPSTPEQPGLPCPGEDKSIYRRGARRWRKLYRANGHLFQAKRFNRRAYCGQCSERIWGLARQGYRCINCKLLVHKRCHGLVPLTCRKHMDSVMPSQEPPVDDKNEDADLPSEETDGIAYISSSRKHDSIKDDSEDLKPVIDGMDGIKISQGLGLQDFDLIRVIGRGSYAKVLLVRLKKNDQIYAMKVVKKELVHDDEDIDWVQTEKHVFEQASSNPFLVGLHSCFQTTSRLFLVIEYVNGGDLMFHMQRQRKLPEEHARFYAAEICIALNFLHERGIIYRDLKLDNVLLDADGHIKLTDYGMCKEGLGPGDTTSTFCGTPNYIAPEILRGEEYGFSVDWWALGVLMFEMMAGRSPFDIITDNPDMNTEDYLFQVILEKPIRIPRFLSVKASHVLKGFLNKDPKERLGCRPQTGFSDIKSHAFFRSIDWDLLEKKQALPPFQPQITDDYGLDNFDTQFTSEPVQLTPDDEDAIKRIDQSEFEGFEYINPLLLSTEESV

[13] = target: RIPK2 (h) (human) (UniProt O43353)
[14] = target: SAPK2a(T106M) (h) (human) (UniProt Q16539)
[15] = target: MKK7β (h) (human) (UniProt O14733)
[16] = target: T4, CHK1 (h) (human) (UniProt O14757)
T4 sequence (looked up): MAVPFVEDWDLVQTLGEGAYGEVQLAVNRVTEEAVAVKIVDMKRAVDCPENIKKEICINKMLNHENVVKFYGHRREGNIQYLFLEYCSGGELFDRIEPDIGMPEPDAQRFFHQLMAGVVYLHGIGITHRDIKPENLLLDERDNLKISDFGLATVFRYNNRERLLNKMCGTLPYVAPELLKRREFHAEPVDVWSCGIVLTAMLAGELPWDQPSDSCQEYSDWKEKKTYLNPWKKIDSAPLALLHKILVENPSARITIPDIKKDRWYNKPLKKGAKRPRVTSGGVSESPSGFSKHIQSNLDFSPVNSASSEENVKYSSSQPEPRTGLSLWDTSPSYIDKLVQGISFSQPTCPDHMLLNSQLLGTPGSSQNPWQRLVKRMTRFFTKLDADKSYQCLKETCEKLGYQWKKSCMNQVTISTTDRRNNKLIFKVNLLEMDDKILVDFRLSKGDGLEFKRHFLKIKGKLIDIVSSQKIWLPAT

[17] = target: KDR (h) (human) (UniProt P35968)
[18] = target: EphB2 (h) (human) (UniProt P29323)
[19] = target: AMPKα1 (h) (human) (UniProt Q13131)
[20] = target: PAK4 (h) (human) (UniProt O96013)
[21] = target: Lck (h) (human) (UniProt P06239)
[22] = target: Mitogen-Activated Protein Kinase-Activated Protein Kinase 3 (human) (UniProt Q16644)

Sequence of Rsk2 (h) (human) (P51812 whole entry): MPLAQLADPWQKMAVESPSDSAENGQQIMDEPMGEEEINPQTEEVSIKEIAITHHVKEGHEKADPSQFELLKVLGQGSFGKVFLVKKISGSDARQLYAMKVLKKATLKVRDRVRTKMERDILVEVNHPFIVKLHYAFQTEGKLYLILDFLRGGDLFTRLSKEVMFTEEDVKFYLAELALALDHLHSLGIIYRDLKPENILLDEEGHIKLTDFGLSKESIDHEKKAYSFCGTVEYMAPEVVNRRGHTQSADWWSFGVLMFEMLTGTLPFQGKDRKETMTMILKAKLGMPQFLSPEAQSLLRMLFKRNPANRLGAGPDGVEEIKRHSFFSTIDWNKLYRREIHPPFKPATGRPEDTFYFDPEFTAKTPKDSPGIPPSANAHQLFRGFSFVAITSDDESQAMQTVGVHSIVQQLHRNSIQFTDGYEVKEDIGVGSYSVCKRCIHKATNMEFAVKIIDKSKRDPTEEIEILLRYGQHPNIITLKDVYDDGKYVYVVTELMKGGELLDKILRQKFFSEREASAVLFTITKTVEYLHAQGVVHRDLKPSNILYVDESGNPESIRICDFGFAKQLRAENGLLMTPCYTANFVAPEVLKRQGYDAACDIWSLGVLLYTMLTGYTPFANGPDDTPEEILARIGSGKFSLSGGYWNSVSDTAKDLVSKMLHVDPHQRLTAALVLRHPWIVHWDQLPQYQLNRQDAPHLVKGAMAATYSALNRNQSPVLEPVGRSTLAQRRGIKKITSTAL
Sequence of RIPK2 (h) (human) (O43353 1-299 limits assumed): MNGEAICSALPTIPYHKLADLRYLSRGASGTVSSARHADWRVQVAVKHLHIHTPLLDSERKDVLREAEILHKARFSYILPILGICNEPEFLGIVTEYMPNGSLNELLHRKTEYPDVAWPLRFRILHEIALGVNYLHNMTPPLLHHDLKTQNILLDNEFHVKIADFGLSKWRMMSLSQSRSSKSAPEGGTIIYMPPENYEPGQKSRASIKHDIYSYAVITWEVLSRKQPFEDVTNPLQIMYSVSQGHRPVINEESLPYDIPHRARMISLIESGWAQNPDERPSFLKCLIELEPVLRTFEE
Sequence of CaMKIIγ (h) (human) (Q13555 whole entry): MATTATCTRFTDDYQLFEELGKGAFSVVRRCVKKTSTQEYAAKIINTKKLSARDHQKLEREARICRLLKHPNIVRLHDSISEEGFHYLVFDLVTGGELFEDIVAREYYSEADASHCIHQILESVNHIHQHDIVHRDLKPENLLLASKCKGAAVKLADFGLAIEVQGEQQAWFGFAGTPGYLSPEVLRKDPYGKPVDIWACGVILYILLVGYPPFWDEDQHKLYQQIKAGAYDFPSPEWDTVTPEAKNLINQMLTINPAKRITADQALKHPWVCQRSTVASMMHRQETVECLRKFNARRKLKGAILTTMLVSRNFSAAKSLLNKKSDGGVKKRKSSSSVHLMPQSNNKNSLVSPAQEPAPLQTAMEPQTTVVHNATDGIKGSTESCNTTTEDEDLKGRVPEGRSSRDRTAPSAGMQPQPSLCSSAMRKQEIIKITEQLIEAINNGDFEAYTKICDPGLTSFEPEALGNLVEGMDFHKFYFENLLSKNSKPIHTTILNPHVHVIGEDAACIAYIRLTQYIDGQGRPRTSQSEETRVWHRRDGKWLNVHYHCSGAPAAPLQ
Sequence of Abl (M351T) (h) (human) (P00519 27-1130 M351T limits assumed): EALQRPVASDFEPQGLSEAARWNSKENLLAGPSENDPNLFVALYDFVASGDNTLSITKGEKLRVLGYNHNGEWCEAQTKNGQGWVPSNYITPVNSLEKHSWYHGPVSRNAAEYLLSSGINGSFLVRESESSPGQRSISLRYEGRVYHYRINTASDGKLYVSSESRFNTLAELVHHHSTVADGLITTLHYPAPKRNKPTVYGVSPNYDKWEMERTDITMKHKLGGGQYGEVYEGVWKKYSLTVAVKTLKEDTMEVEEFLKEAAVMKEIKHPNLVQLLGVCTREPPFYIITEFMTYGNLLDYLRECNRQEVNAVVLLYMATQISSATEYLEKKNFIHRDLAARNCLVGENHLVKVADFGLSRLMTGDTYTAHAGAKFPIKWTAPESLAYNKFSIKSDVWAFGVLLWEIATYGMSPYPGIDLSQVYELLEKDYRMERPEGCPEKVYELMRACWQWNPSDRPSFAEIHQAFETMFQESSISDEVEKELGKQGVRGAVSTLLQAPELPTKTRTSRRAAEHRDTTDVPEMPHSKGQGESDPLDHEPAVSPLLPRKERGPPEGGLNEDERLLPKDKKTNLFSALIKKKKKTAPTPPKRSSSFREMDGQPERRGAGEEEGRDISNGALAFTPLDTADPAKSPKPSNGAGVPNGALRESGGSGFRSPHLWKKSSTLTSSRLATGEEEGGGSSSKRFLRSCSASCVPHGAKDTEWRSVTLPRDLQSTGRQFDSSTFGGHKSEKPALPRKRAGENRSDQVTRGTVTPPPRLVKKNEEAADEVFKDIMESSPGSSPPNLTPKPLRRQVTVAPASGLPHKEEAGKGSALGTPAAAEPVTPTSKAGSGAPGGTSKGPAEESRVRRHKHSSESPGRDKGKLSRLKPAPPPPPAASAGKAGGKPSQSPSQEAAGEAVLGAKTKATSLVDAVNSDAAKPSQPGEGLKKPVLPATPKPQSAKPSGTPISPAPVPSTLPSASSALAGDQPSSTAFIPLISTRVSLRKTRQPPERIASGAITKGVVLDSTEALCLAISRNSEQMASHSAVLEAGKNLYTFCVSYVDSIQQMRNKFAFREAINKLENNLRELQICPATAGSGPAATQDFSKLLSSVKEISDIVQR
Sequence of SAPK2a(T106M) (h) (human) (Q16539 whole entry T106M): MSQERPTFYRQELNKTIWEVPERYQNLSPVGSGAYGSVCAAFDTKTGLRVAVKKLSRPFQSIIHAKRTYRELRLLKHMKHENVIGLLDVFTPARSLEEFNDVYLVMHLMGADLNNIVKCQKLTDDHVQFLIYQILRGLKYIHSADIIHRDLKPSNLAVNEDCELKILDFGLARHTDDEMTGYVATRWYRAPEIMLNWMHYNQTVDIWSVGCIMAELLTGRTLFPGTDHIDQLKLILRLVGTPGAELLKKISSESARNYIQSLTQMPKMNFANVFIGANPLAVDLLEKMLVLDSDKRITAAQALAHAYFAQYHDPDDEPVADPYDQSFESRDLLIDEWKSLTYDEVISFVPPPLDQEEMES
Sequence of CHK2(R145W) (h) (human) (O96017 5-543 R145W limits assumed): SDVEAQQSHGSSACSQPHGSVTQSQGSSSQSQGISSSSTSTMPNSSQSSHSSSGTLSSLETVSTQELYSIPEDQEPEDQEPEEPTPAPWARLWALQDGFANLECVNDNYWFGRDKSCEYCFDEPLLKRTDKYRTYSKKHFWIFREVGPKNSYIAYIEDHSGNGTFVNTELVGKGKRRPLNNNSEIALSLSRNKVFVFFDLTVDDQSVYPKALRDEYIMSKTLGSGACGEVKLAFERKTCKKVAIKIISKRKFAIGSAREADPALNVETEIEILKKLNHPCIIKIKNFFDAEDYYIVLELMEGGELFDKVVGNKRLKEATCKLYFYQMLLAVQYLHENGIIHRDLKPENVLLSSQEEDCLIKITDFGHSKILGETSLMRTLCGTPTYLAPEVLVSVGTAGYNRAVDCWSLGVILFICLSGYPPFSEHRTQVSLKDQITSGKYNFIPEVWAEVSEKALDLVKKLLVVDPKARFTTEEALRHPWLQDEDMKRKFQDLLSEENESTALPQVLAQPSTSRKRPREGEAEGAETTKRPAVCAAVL
Sequence of EphB2 (h) (human) (P29323 565-986 limits assumed): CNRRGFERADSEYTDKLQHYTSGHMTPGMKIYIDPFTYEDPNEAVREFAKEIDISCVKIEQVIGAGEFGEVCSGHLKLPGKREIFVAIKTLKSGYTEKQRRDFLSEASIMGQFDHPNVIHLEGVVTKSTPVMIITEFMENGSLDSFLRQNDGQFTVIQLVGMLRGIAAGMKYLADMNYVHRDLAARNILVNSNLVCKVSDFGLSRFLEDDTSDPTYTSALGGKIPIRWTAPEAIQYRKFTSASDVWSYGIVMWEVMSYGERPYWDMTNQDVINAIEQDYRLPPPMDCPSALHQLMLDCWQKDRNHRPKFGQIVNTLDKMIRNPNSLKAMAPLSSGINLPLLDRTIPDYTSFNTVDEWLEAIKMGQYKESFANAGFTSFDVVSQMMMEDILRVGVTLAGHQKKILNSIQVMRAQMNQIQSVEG

MMI-0300 (peptide)
% activity at 100 µM [1]: 127% | % activity at 100 µM [2]: 25% | % activity at 100 µM [3]: 33% | % activity at 100 µM [4]: 5% | % activity at 100 µM [5]: 72% | % activity at 100 µM [6]: 51% | % activity at 100 µM [7]: 21% | % activity at 100 µM [8]: 90% | % activity at 100 µM [9]: 68% | % activity at 100 µM [10]: 140% | % activity at 100 µM [11]: 101% | % activity at 100 µM [12]: 81% | % activity at 100 µM [13]: 97% | % activity at 100 µM [14]: 97% | % activity at 100 µM [15]: 100% | % activity at 100 µM [16]: 91% | % activity at 100 µM [17]: 101% | % activity at 100 µM [18]: 18% | % activity at 100 µM [19]: 71% | % activity at 100 µM [20]: 94% | % activity at 100 µM [21]: -2% | % activity at 100 µM [22]: 3%
